Measurements from the supplement of paper PMC9112550, “Optimization of the antimicrobial peptide Bac7 by deep mutational scanning” (BMC Biology, 2022).
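Further: peptides expressed intracellularly from a pBAD plasmid library in pooled LB shake-flask culture, induced with 0.3% L-arabinose, DNA abundance read by NGS, three biological replicates, DESeq2 with apeglm shrinkage.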

What follows are sequences tested on Escherichia coli TOP10 (assay: shrunken log2 fold change of peptide-encoding DNA abundance (4.5 h post-induction vs induction); higher = less antimicrobial activity (less host growth inhibition)). Details: time post-induction: 4.5 h; library: site-saturation at positions 5, 18, 19, 20.
For RRIRERPPRLPRPRPRPRFLPRP, the “shrunken log2 fold change” value was -0.18.
RRIRNRPPRLPRPRPRPVQGPRP was tested, and the “shrunken log2 fold change” value was 0.295.
RRIRGRPPRLPRPRPRPTCPPRP was tested, and the “shrunken log2 fold change” value was 0.419.
With RRIRYRPPRLPRPRPRPAIAPRP the “shrunken log2 fold change” value was 0.0565.
In the case of RRIRTRPPRLPRPRPRPDHKPRP, the “shrunken log2 fold change” value is reported as -0.117.
For RRIRKRPPRLPRPRPRPFWVPRP, the “shrunken log2 fold change” value was -0.175.
In the case of RRIRFRPPRLPRPRPRPVLLPRP, the “shrunken log2 fold change” value is reported as -0.209.
With RRIRNRPPRLPRPRPRPNDEPRP the “shrunken log2 fold change” value was -0.227.
With RRIRTRPPRLPRPRPRPPDSPRP the “shrunken log2 fold change” value was -0.0615.
In the case of RRIRFRPPRLPRPRPRPKWNPRP, the “shrunken log2 fold change” value is reported as -0.217.
RRIRPRPPRLPRPRPRPFYWPRP was tested, and the “shrunken log2 fold change” value was -0.107.
In the case of RRIRMRPPRLPRPRPRPETAPRP, the “shrunken log2 fold change” value is reported as 4.06.
In the case of RRIRSRPPRLPRPRPRPKFVPRP, the “shrunken log2 fold change” value is reported as -0.0276.
With RRIRHRPPRLPRPRPRPWVSPRP the “shrunken log2 fold change” value was -0.683.
With RRIRKRPPRLPRPRPRPRKAPRP the “shrunken log2 fold change” value was 0.384.
In the case of RRIRKRPPRLPRPRPRPCSKPRP, the “shrunken log2 fold change” value is reported as -0.01.
In the case of RRIRGRPPRLPRPRPRPWSPPRP, the “shrunken log2 fold change” value is reported as 0.178.
RRIRCRPPRLPRPRPRPENVPRP was tested, and the “shrunken log2 fold change” value was -0.0137.
In the case of RRIRARPPRLPRPRPRPWTWPRP, the “shrunken log2 fold change” value is reported as -0.327.
For RRIRGRPPRLPRPRPRPQCPPRP, the “shrunken log2 fold change” value was 0.337.
In the case of RRIRWRPPRLPRPRPRPHHRPRP, the “shrunken log2 fold change” value is reported as -0.214.
RRIRVRPPRLPRPRPRPRRIPRP was tested, and the “shrunken log2 fold change” value was -0.0306.
With RRIRTRPPRLPRPRPRPPHGPRP the “shrunken log2 fold change” value was -0.228.
With RRIRRRPPRLPRPRPRPDCTPRP the “shrunken log2 fold change” value was 0.252.
With RRIRTRPPRLPRPRPRPGKLPRP the “shrunken log2 fold change” value was -0.394.
RRIRNRPPRLPRPRPRPGHKPRP was tested, and the “shrunken log2 fold change” value was 0.0903.
In the case of RRIRVRPPRLPRPRPRPNWVPRP, the “shrunken log2 fold change” value is reported as 0.213.
For RRIRARPPRLPRPRPRPRLMPRP, the “shrunken log2 fold change” value was 0.216.
In the case of RRIRARPPRLPRPRPRPKRRPRP, the “shrunken log2 fold change” value is reported as 0.282.
RRIRMRPPRLPRPRPRPYYAPRP was tested, and the “shrunken log2 fold change” value was -0.948.
RRIRSRPPRLPRPRPRPWWQPRP was tested, and the “shrunken log2 fold change” value was -0.0257.
In the case of RRIRIRPPRLPRPRPRPQCYPRP, the “shrunken log2 fold change” value is reported as -0.0646.
RRIRQRPPRLPRPRPRPTIPPRP was tested, and the “shrunken log2 fold change” value was -0.205.
With RRIRGRPPRLPRPRPRPMLHPRP the “shrunken log2 fold change” value was 0.526.
For RRIRGRPPRLPRPRPRPDNFPRP, the “shrunken log2 fold change” value was 0.169.
RRIRERPPRLPRPRPRPMWEPRP was tested, and the “shrunken log2 fold change” value was 0.169.
In the case of RRIRSRPPRLPRPRPRPEIFPRP, the “shrunken log2 fold change” value is reported as -0.432.
In the case of RRIRDRPPRLPRPRPRPDDWPRP, the “shrunken log2 fold change” value is reported as 1.08.
With RRIRCRPPRLPRPRPRPDCNPRP the “shrunken log2 fold change” value was -0.219.
With RRIRWRPPRLPRPRPRPDTYPRP the “shrunken log2 fold change” value was -0.161.
RRIRYRPPRLPRPRPRPSEFPRP was tested, and the “shrunken log2 fold change” value was -0.218.
RRIRGRPPRLPRPRPRPAYQPRP was tested, and the “shrunken log2 fold change” value was 0.254.
With RRIRDRPPRLPRPRPRPHGSPRP the “shrunken log2 fold change” value was 0.208.
In the case of RRIRPRPPRLPRPRPRPHGMPRP, the “shrunken log2 fold change” value is reported as -0.531.
For RRIRVRPPRLPRPRPRPFCNPRP, the “shrunken log2 fold change” value was 0.0823.
In the case of RRIRNRPPRLPRPRPRPQNPPRP, the “shrunken log2 fold change” value is reported as -0.117.
RRIRPRPPRLPRPRPRPIKAPRP was tested, and the “shrunken log2 fold change” value was -0.00863.
With RRIRTRPPRLPRPRPRPLWFPRP the “shrunken log2 fold change” value was -0.489.
For RRIRVRPPRLPRPRPRPWNNPRP, the “shrunken log2 fold change” value was -0.204.
In the case of RRIRCRPPRLPRPRPRPIVSPRP, the “shrunken log2 fold change” value is reported as -0.506.
With RRIRHRPPRLPRPRPRPMHMPRP the “shrunken log2 fold change” value was -0.0761.
In the case of RRIRQRPPRLPRPRPRPHVYPRP, the “shrunken log2 fold change” value is reported as -0.414.
In the case of RRIRIRPPRLPRPRPRPEVNPRP, the “shrunken log2 fold change” value is reported as -0.294.
RRIRTRPPRLPRPRPRPQFTPRP was tested, and the “shrunken log2 fold change” value was -0.0397.
RRIRWRPPRLPRPRPRPMPYPRP was tested, and the “shrunken log2 fold change” value was -0.0164.
In the case of RRIRDRPPRLPRPRPRPGVCPRP, the “shrunken log2 fold change” value is reported as 0.358.
With RRIRNRPPRLPRPRPRPLMCPRP the “shrunken log2 fold change” value was 0.141.
In the case of RRIRIRPPRLPRPRPRPEERPRP, the “shrunken log2 fold change” value is reported as 0.0136.
With RRIRCRPPRLPRPRPRPCRRPRP the “shrunken log2 fold change” value was 0.0819.
With RRIRQRPPRLPRPRPRPGPPPRP the “shrunken log2 fold change” value was 0.462.
For RRIRYRPPRLPRPRPRPLGPPRP, the “shrunken log2 fold change” value was 0.157.
RRIRQRPPRLPRPRPRPVPIPRP was tested, and the “shrunken log2 fold change” value was -0.0341.
With RRIRSRPPRLPRPRPRPNFVPRP the “shrunken log2 fold change” value was -0.0465.
RRIRERPPRLPRPRPRPDEEPRP was tested, and the “shrunken log2 fold change” value was -0.142.
In the case of RRIRRRPPRLPRPRPRPKATPRP, the “shrunken log2 fold change” value is reported as 0.165.
In the case of RRIRCRPPRLPRPRPRPACRPRP, the “shrunken log2 fold change” value is reported as 0.128.
For RRIRERPPRLPRPRPRPSMRPRP, the “shrunken log2 fold change” value was 0.353.
For RRIRRRPPRLPRPRPRPGSAPRP, the “shrunken log2 fold change” value was 0.378.
In the case of RRIRHRPPRLPRPRPRPCLHPRP, the “shrunken log2 fold change” value is reported as -0.0114.
For RRIRTRPPRLPRPRPRPEQHPRP, the “shrunken log2 fold change” value was 0.0492.
In the case of RRIRARPPRLPRPRPRPYGSPRP, the “shrunken log2 fold change” value is reported as -0.0423.
In the case of RRIRPRPPRLPRPRPRPYSGPRP, the “shrunken log2 fold change” value is reported as -0.524.
In the case of RRIRRRPPRLPRPRPRPTNIPRP, the “shrunken log2 fold change” value is reported as -0.304.
With RRIRSRPPRLPRPRPRPCMGPRP the “shrunken log2 fold change” value was -0.403.
With RRIRMRPPRLPRPRPRPKSCPRP the “shrunken log2 fold change” value was 0.839.
